The results in this text go back to the RNAGym collection of RNA variant scans (doi:10.7554/elife.90254).

The chains are these.
B1: OR4K15 (parent)
chain: GUUAACGGUCAUAGGCCAUGGAAACUAGGAGCACCAUUUCGCUGCCAGUGAAGAAAUGAACAAAGAAAAUCUGGGCCAGGCAGGCAUCAAAAGAAAUAGUCUUGCGCUCAACCAGAAAGUCUGUAAUCAUUUUAAGGGUA

In this data set the parent is B1. The experiment in a line: self-cleavage, relative activity (ratio to wild type); higher = more cleavage; in vitro, sequencing; the parent is a self-cleaving ribozyme.
In the case of U87A A96U, the self-cleavage is 1.68. Turning to U87A A96G, the self-cleavage amounted to 2.29. Turning to A86G U130A, the self-cleavage was found to be 1.55. As for A86G U130C, the self-cleavage amounted to 1.2.

Turning to U87C U139C, the self-cleavage is 0.35.

On to A86U A116G, for which the self-cleavage was determined as 0.59. With A82G U102C the figure was 1.16.

Turning to A82G U102A, the self-cleavage was 0.34. With A86G A95G the figure was 1.72. Consider A82G A114U, for which the self-cleavage was found to be 0.03.

For A82G A114G, the self-cleavage worked out at 0.08.

In the case of A86G U100A, the self-cleavage is 0.41. Consider A86G U100C, for which the self-cleavage came to 2.12.

For the variant U87A G106C, the self-cleavage amounted to 0.01. With C85G A135G the figure was 0.85.

Consider C81A A135G, for which the self-cleavage worked out at 0.22. With A82C A118G the figure was 0.11. With A86U A110G the figure was 0.09; with A86U A110C, 0.36; with A82G A116U, 0.07. Turning to A86G A91U, the self-cleavage amounted to 0.73. With A86G A91G the figure was 0.16. Regarding G80A A95U, the self-cleavage turned out to be 0.17.

Turning to A86U U139G, the self-cleavage amounted to 1.57.

G83A U122A: the self-cleavage was found to be 1.13. A82U U139A: the self-cleavage amounted to 0.18.

With A86G U132C, the self-cleavage is 1.16. With A82G A95G the figure was 1.23; with U87A U130C, 1.36. With C85G A125G the figure was 0.55; with G84C U122C, 0.23.

As to A86U U131C, the self-cleavage is 1.77. With C88U U127C the figure was 2.09; with C81U A86G, 0.17; with A82U A91G, 0.11. Regarding A86U A96G, the self-cleavage stood at 1.68. With A82G C112U the figure was 0; with A86C U139C, 0.51. With G83A A94G the figure was 1.79. Regarding U87C A134G, the self-cleavage came to 1.63. With A89C C107U the figure was 0.04; with A86U A125G, 0.95. Take G80A U108A: the self-cleavage came out at 0.02. A82U A140U: the self-cleavage came to 0.24.

Take A82G U122C: the self-cleavage was 0.24. Turning to U87C A92G, the self-cleavage turned out to be 0.43.

Take A86G U127A: the self-cleavage came to 1.76.

Take A86G U127C: the self-cleavage is 1.22.

Regarding G80U U120C, the self-cleavage came to 0.08. With A89C G106C the figure was 0; with A89C A90G, 0.73; with A82U A92U, 0.26. As to A86U A114G, the self-cleavage was found to be 1.22. With A86U A114U the figure was 0.11; with C81A A114U, 0.03. A86G A129C: the self-cleavage turned out to be 1.29. As to A86G A129G, the self-cleavage is 0.22. Regarding U87G A111G, the self-cleavage came out at 0.02. On to C85A A135G, for which the self-cleavage was 1.54. With G79A U87A the figure was 0.11.

Take G79A U87C: the self-cleavage was found to be 0.1.

For A82G A129G, the self-cleavage stood at 0.47. In the case of A86U G93U, the self-cleavage was 2.01.

On to A86U A91G, for which the self-cleavage was 1.93. Turning to A89C A117U, the self-cleavage amounted to 0.98. A82G U139G: the self-cleavage worked out at 0.26.

Turning to A82G U139A, the self-cleavage was 0.23. With A82G A125G the figure was 0.23. With A82U A94G the figure was 0.26; with A82U U87A, 0.02.

For the variant A82G U124C, the self-cleavage amounted to 0.27. Turning to U87A U132C, the self-cleavage is 1.35. For C85U A90C, the self-cleavage stood at 1.2.

Take U87A A135G: the self-cleavage is 2.03.

Consider A82G U100C, for which the self-cleavage was 1.36.

Take A82U U108A: the self-cleavage was 0.03.

Turning to A86G A92G, the self-cleavage was determined as 1.07.

G80A A92G: the self-cleavage worked out at 0.16.

As to U87G U100A, the self-cleavage is 0.06.

With U87A A94U, the self-cleavage worked out at 1.52. With A82G U87A the figure was 0.32.

As for A82G U87C, the self-cleavage stood at 0.46.

For the variant A82U U132C, the self-cleavage came out at 0.18.

Regarding U87C U108C, the self-cleavage amounted to 0.01. With U87C U108A the figure was 0.01. With A86G U108A the figure was 0.01; with A86U U102C, 2.39.

On to A82U U124C, for which the self-cleavage was found to be 0.18.

As to G83A A90G, the self-cleavage was determined as 1.34. With A82G U97C the figure was 0.5. With A82G U97A the figure was 0.92; with A82C A116G, 0.09; with A82U A110G, 0.04. With G83U A116G, the self-cleavage stood at 0.2.

With A82U A126U, the self-cleavage stood at 0.19.

On to A82U A126G, for which the self-cleavage was found to be 0.1. In the case of U87C C113U, the self-cleavage is 0.12. For the variant U87C C113A, the self-cleavage is 0.01. For the variant A86U A92G, the self-cleavage was determined as 1.46. With U87C U132A the figure was 0.81. Regarding A82G G138C, the self-cleavage is 0.66. For the variant C81U C112U, the self-cleavage came to 0.01. Consider A86G U102A, for which the self-cleavage is 1.36.

Consider G83A U108C, for which the self-cleavage came out at 0.02. With A82G G83U the figure was 0.08; with G80A U130C, 0.08; with A86U U132C, 1.71.

For the variant G80A A91G, the self-cleavage is 0.08. With G84U C88U the figure was 0.52. Turning to U87C A135G, the self-cleavage was determined as 1.81. For A86G A135G, the self-cleavage worked out at 0.99. C85U A125U: the self-cleavage was determined as 1.35. Take U87C G115U: the self-cleavage is 0.29.

Regarding U87A U102C, the self-cleavage worked out at 1.71.

On to U87A C88U, for which the self-cleavage was 1.17. With G83A A140U the figure was 2.25; with G84C A94G, 0.32. With G79A U108C the figure was 0.01; with U87A U131C, 1.67.

As to A89G A90U, the self-cleavage was 1.39. Take A86U A118G: the self-cleavage was 1.33. With U87C A118C the figure was 0.4; with A82U U122C, 0.17; with A82U U122A, 0.16.

Turning to C81A A126G, the self-cleavage is 0.17. With A86U A89G the figure was 2.16; with A82U U103C, 0.03; with U87C A89U, 0.65. With C85U A96U the figure was 1.58; with C81U A129U, 0.16. With C85A A134G the figure was 1.83; with G79U A135G, 0.02. For the variant C85U A134G, the self-cleavage was found to be 2.28. Take A86G A98U: the self-cleavage is 1.73. On to A86U C109U, for which the self-cleavage amounted to 0.6.

As for A86G A116U, the self-cleavage was found to be 0.36.

In the case of U87C U130C, the self-cleavage is 0.55.

For the variant G84U U130C, the self-cleavage amounted to 0.28. With U87A U103C the figure was 0.68; with G83A, 1.55; with G83U, 0.45. With G83C the figure was 0.35. A82G U127C: the self-cleavage was 0.22.

Turning to A86G U120A, the self-cleavage was 1.8. With G80U A91G the figure was 0.11. With C85A A98U the figure was 1.17; with A86C G106U, 0.01; with U87C A91U, 1.35. With U87C A91G the figure was 1.06; with A86G A117U, 1.45. As to A86G A117G, the self-cleavage turned out to be 1.45. With A86G U124C the figure was 0.3; with A86C U127A, 1.62. Turning to G80U U139A, the self-cleavage was 0.09.

Take A86G U87A: the self-cleavage was found to be 1.4. For the variant A86C A89G, the self-cleavage came out at 1.17. With A82G A91G the figure was 0.12; with A82G A126G, 0.33. C85G A110G: the self-cleavage came out at 0.03.

For the variant C85U U87C, the self-cleavage was 1.47. For A86G C105A, the self-cleavage worked out at 0.02. With U87G U132C the figure was 0.88.

Take U87C U102C: the self-cleavage worked out at 2.08.

For C85A A140G, the self-cleavage amounted to 1.84.

Regarding G79A U130C, the self-cleavage was 0.15. With A82G A90G the figure was 0.31.

Turning to A86G A89U, the self-cleavage turned out to be 1.86.
